Holding throughout (settings): both partners purified
In assay [1] the target is T1, human ULBP6-02 extracellular domain (residues R26-G218) (human, UniProt Q5VY80 26-218, glycosylation of residues N68 and N82 (in the crystal structure)).
T1 construct: the construct of the SPR with NKG2D and of the cell assays is only called ULBP6-02 or recombinant ULBP6-02; also called sULBP6-02; sULBP6; source: recombinant, 23andMe, Inc; mammalian expression system
T1 sequence (looked up): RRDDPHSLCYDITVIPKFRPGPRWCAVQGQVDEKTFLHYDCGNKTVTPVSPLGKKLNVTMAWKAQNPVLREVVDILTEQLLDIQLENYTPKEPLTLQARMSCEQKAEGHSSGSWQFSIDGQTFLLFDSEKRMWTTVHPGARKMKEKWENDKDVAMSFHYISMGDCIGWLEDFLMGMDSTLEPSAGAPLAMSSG
The assay is described as follows: SPR; Biacore 8K or 8K+, 37°C; Fc-tagged human NKG2D (0.5 μg/mL) captured on Series S Sensor Protein A chip to about 25 RU; threefold serial dilutions of NKG2DLs injected at 30 μL/minute in HBS-P (0.01 mol/L HEPES pH 7.4, 0.15 mol/L NaCl, 0.005% P20); KD from steady-state fit. In general terms: In SPR one partner is held on a chip, and binding of the other changes the refractive index at the surface.

In assay [2] the target is human ULBP6 (allelic isoform not stated) (Homo sapiens, ULBP6-02 allele (R26, …, UniProt Q5VY80)). The assay is described as follows: SPR; 23ME-01473 and human ULBPs, as described for NKG2D (Biacore, 37°C, Protein A chip, HBS-P, ligands injected); one-to-one Langmuir model, KD = kd/ka.
The target of a further assay is human ULBP2 (Homo sapiens (Human)., UniProt Q9BZM5). The assay is described as above.
The target in another assay is human ULBP1 (Homo sapiens (Human)., UniProt Q9BZM6). Described as above.
Another assay deals with human ULBP3 (Homo sapiens (Human)., UniProt Q9BZM4). The assay is described as above.
The target of another assay is human ULBP5 (Homo sapiens (Human)., UniProt Q6H3X3). Described as above.
The target in a further assay is biotinylated ULBP6-02 (human, UniProt Q5VY80, biotin). The assay is described as follows: ELISA; blocking assay: plates coated with Fc-tagged NKG2D; biotinylated ULBP5 (1.55 nmol/L) or ULBP6-02 (0.15 nmol/L) at its EC80 precomplexed with 23ME-01473 and transferred to the plates; IC50 from dose-response fit.
The next assay addresses biotinylated ULBP5 (human, UniProt Q6H3X3, biotin). The description is as above.

Chain of human ULBP3 (Q9BZM4 30-217): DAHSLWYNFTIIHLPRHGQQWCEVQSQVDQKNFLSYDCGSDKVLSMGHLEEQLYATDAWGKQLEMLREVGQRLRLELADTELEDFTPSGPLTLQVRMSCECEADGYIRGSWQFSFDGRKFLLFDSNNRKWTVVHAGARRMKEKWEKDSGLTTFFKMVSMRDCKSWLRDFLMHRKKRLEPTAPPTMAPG
Chain of human ULBP1 (Q9BZM6 26-216): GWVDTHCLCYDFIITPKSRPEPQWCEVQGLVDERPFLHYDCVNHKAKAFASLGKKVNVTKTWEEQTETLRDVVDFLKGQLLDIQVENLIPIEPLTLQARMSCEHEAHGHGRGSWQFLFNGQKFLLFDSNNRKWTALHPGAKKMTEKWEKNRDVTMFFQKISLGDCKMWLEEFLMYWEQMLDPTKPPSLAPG
Chain of human ULBP2 (Q9BZM5 26-217): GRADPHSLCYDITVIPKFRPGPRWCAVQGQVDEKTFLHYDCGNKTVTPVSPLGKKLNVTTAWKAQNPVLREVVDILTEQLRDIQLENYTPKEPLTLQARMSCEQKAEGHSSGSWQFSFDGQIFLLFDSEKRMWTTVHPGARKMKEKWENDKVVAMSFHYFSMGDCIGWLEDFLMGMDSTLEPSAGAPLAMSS
Chain of human ULBP5 (Q6H3X3 26-218): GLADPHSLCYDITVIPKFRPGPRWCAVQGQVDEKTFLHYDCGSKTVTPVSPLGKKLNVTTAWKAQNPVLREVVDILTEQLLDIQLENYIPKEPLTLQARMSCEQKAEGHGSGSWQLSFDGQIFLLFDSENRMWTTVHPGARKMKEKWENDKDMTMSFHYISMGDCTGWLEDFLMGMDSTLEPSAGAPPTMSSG
Chain of biotinylated ULBP5 (Q6H3X3 26-218): as above

B1: Fc-tagged human NKG2D (Fc fusion, UniProt P26718 73-216, looked up)
chain: IWSAVFLNSLFNQEVQIPLTESYCGPCPKNWICYKNNCYQFFDESKNWYESQASCMSQNASLLKVYSKEDQDLLKLVKSYHWMGLVHIPTNGSWQWEDGSILSPNLLTIIEMQKGDCALYASSFKGYIENCSTPNTYICMQRTV
notes: NK group 2D receptor (NKG2D), human; also called Fc-tagged NKG2D
On to B1, for which the binding result in assay [1] is “binds”.

B2: 23ME-01473, humanized Fc effector-enhanced (afucosylated) anti-ULBP6/2/5 antibody (antibody, V domains shown)
VH: EVQLVESGGGLVQPGGSLRLSCAASGFTFSTYGFHWVRQAPGKGLEWVAYISSNSGTIDYADTVKGRFTISRDNAKNSLYLQMNSLRAEDTAVYYCARQGYGFDNWGQGTTVTVSS
VL: DIQLTQSPSSLSASVGDRVTITCSASSRVSYMNWYQQKPGKSPKIWVYGISNLASGVPSRFSGSGSGTDFTFTISSLQPEDIATYYCQQRSSHPLTFGGGTKVEIK
notes: variable domain as in the heavy chain of the Fab m2; human IgG1 heavy constant region; as the light chain of m2; Humanized by CDR grafting from a mouse hybridoma clone; also called Fc-enhanced anti-ULBP6/2/5 antibody; source: CHO FUT8-KO, transfected, purified (Protein A, SEC Superdex 200)
B2: the results for the equilibrium dissociation constant (Kd) (in assay [2]; with human ULBP2; with human ULBP5) were 0.053 nM, 0.23 nM and 1.92 nM, respectively. Moreover, the binding result with human ULBP1 and in the assay with human ULBP3 was “no binding” each time. For the same molecule, the IC50 with biotinylated ULBP6-02 turned out to be 0.04 nM; with biotinylated ULBP5, 0.31 nM.

As a reminder, the Kd is the concentration at which binding is half-saturated. A higher Kd goes with weaker binding. By IC50 is commonly meant the concentration at which inhibition is half-maximal. Read a low IC50 as greater potency in that assay.

Values taken from article PMC11927390 (Cancer Research Communications, 2025).
